According to patent US20190233495A1 (Sanofi, published 2019):
Non-standard residues stand in square brackets, D forms with d. 1Nal = N[C@@H](Cc1cccc2ccccc12)C(=O)O; Nle = CCCC[C@H](N)C(=O)O; Aib = CC(C)(N)C(=O)O

B1: SEQ ID NO: 35 (peptide)
peptide: Ac-LEGREKVRAQI[Aib][Aib]EGQSTWS[Aib]RKK-NH2
SMILES: CC[C@H](C)[C@H](NC(=O)[C@H](CCC(N)=O)NC(=O)[C@H](C)NC(=O)[C@H](CCCNC(=N)N)NC(=O)[C@@H](NC(=O)[C@H](CCCCN)NC(=O)[C@H](CCC(=O)O)NC(=O)[C@H](CCCNC(=N)N)NC(=O)CNC(=O)[C@H](CCC(=O)O)NC(=O)[C@H](CC(C)C)NC(C)=O)C(C)C)C(=O)NC(C)(C)C(=O)NC(C)(C)C(=O)N[C@@H](CCC(=O)O)C(=O)NCC(=O)N[C@@H](CCC(N)=O)C(=O)N[C@@H](CO)C(=O)N[C@H](C(=O)N[C@@H](Cc1c[nH]c2ccccc12)C(=O)N[C@@H](CO)C(=O)NC(C)(C)C(=O)N[C@@H](CCCNC(=N)N)C(=O)N[C@@H](CCCCN)C(=O)N[C@@H](CCCCN)C(N)=O)[C@@H](C)O
B2: SEQ ID NO: 34 (peptide)
peptide: Ac-LEGREKVRK(Ac)[Aib]I[Aib][Aib]EG[Nle]STWS[Aib]RKK-NH2
SMILES: CCCC[C@H](NC(=O)CNC(=O)[C@H](CCC(=O)O)NC(=O)C(C)(C)NC(=O)C(C)(C)NC(=O)[C@@H](NC(=O)C(C)(C)NC(=O)[C@H](CCCCNC(C)=O)NC(=O)[C@H](CCCNC(=N)N)NC(=O)[C@@H](NC(=O)[C@H](CCCCN)NC(=O)[C@H](CCC(=O)O)NC(=O)[C@H](CCCNC(=N)N)NC(=O)CNC(=O)[C@H](CCC(=O)O)NC(=O)[C@H](CC(C)C)NC(C)=O)C(C)C)[C@@H](C)CC)C(=O)N[C@@H](CO)C(=O)N[C@H](C(=O)N[C@@H](Cc1c[nH]c2ccccc12)C(=O)N[C@@H](CO)C(=O)NC(C)(C)C(=O)N[C@@H](CCCNC(=N)N)C(=O)N[C@@H](CCCCN)C(=O)N[C@@H](CCCCN)C(N)=O)[C@@H](C)O
B3: SEQ ID NO: 4 (peptide)
peptide: Ac-LEGREKVRAQI[Aib][Aib]EGMSTWS[Aib]RKK-NH2
SMILES: CC[C@H](C)[C@H](NC(=O)[C@H](CCC(N)=O)NC(=O)[C@H](C)NC(=O)[C@H](CCCNC(=N)N)NC(=O)[C@@H](NC(=O)[C@H](CCCCN)NC(=O)[C@H](CCC(=O)O)NC(=O)[C@H](CCCNC(=N)N)NC(=O)CNC(=O)[C@H](CCC(=O)O)NC(=O)[C@H](CC(C)C)NC(C)=O)C(C)C)C(=O)NC(C)(C)C(=O)NC(C)(C)C(=O)N[C@@H](CCC(=O)O)C(=O)NCC(=O)N[C@@H](CCSC)C(=O)N[C@@H](CO)C(=O)N[C@H](C(=O)N[C@@H](Cc1c[nH]c2ccccc12)C(=O)N[C@@H](CO)C(=O)NC(C)(C)C(=O)N[C@@H](CCCNC(=N)N)C(=O)N[C@@H](CCCCN)C(=O)N[C@@H](CCCCN)C(N)=O)[C@@H](C)O
B4: SEQ ID NO: 36 (peptide)
peptide: Ac-LEGREKVRAQI[Aib][Aib]EG[Nle]SK[1Nal]SKR-NH2
SMILES: CCCC[C@H](NC(=O)CNC(=O)[C@H](CCC(=O)O)NC(=O)C(C)(C)NC(=O)C(C)(C)NC(=O)[C@@H](NC(=O)[C@H](CCC(N)=O)NC(=O)[C@H](C)NC(=O)[C@H](CCCNC(=N)N)NC(=O)[C@@H](NC(=O)[C@H](CCCCN)NC(=O)[C@H](CCC(=O)O)NC(=O)[C@H](CCCNC(=N)N)NC(=O)CNC(=O)[C@H](CCC(=O)O)NC(=O)[C@H](CC(C)C)NC(C)=O)C(C)C)[C@@H](C)CC)C(=O)N[C@@H](CO)C(=O)N[C@@H](CCCCN)C(=O)N[C@@H](Cc1cccc2ccccc12)C(=O)N[C@@H](CO)C(=O)N[C@@H](CCCCN)C(=O)N[C@@H](CCCNC(=N)N)C(N)=O

Each binder was assayed against T1, RXFP1 receptor (UniProt Q9HBX9 1-757, limits assumed) (assay: cell-based or functional assay).
T1 sequence (looked up): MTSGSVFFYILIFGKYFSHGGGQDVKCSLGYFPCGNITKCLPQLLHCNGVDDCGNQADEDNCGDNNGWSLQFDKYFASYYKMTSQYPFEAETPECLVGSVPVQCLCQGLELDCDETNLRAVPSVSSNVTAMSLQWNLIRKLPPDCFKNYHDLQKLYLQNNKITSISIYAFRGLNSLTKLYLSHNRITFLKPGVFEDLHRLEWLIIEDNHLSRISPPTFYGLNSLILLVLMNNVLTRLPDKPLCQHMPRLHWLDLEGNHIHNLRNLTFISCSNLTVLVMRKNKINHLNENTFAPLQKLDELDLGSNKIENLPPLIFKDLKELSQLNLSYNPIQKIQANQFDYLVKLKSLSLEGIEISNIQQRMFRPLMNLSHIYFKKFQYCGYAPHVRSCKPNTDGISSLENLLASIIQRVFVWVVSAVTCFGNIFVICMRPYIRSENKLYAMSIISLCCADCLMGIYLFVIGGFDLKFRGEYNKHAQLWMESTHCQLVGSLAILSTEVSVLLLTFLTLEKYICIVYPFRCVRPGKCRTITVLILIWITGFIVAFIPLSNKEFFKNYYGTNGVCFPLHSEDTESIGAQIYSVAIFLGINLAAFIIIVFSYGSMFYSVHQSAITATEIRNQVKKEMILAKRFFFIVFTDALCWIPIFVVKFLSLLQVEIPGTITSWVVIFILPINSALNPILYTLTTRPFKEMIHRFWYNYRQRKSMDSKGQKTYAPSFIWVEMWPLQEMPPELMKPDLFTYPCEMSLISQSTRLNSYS

Row | Binder | cAMP assay in OVCAR 5 cells EC50 [nM] | cAMP assay in OVCAR 5 cells Emax [%]
1 | B1 | 15.8 | 
2 | B2 | 68.7 | 96
3 | B3 | 14.1 | 99
4 | B4 | 127 | 103
